Measured values: the supplement of paper PMC9112550, “Optimization of the antimicrobial peptide Bac7 by deep mutational scanning” (BMC Biology, 2022)

What follows are sequences tested on Escherichia coli TOP10 (assay: shrunken log2 fold change of peptide-encoding DNA abundance (4.5 h post-induction vs induction); higher = less antimicrobial activity (less host growth inhibition)). Conditions: time post-induction: 4.5 h; library: site-saturation at positions 5, 18, 19, 20.
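Also: peptides expressed intracellularly from a pBAD plasmid library in pooled LB shake-flask culture, induced with 0.3% L-arabinose, DNA abundance read by NGS, three biological replicates, DESeq2 with apeglm shrinkage.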

Question: For RRIRIRPPRLPRPRPRPHPVPRP, which “shrunken log2 fold change” value is on record?
Answer: Its value is 0.0514.

Question: How did the “shrunken log2 fold change” value turn out when RRIRIRPPRLPRPRPRPHRPPRP was run?
Answer: Its value is -0.166.

Question: Which “shrunken log2 fold change” value does the source give for RRIRIRPPRLPRPRPRPHRVPRP here?
Answer: The value was -0.24.

Question: For RRIRIRPPRLPRPRPRPHTNPRP, which “shrunken log2 fold change” value is on record?
Answer: The value was -0.906.

Question: For RRIRIRPPRLPRPRPRPHVAPRP, which “shrunken log2 fold change” value is on record?
Answer: Its value is -0.189.

Question: For RRIRIRPPRLPRPRPRPHVEPRP, which “shrunken log2 fold change” value is on record?
Answer: The value was -0.227.

Question: How did the “shrunken log2 fold change” value turn out when RRIRIRPPRLPRPRPRPICGPRP was run?
Answer: The value was -0.161.

Question: For RRIRIRPPRLPRPRPRPICNPRP, which “shrunken log2 fold change” value is on record?
Answer: The value was -0.607.

Question: How did the “shrunken log2 fold change” value turn out when RRIRIRPPRLPRPRPRPIDTPRP was run?
Answer: Its value is -0.00177.

Question: For RRIRIRPPRLPRPRPRPIEEPRP, which “shrunken log2 fold change” value is on record?
Answer: Its value is -0.0195.

Question: How did the “shrunken log2 fold change” value turn out when RRIRIRPPRLPRPRPRPIEFPRP was run?
Answer: The value was -0.0138.

Question: For RRIRIRPPRLPRPRPRPIFPPRP, which “shrunken log2 fold change” value is on record?
Answer: The value was -0.104.

Question: RRIRIRPPRLPRPRPRPIGYPRP was tested. Which “shrunken log2 fold change” value did it give?
Answer: Its value is -0.085.

Question: With RRIRIRPPRLPRPRPRPIHRPRP as the sequence, how does the “shrunken log2 fold change” value read?
Answer: Its value is -0.197.

Question: RRIRIRPPRLPRPRPRPIHVPRP was tested. Which “shrunken log2 fold change” value did it give?
Answer: The value was 0.0502.

Question: For RRIRIRPPRLPRPRPRPIKAPRP, which “shrunken log2 fold change” value is on record?
Answer: Its value is -0.38.

Question: With RRIRIRPPRLPRPRPRPIMPPRP as the sequence, how does the “shrunken log2 fold change” value read?
Answer: The value was -0.825.

Question: For RRIRIRPPRLPRPRPRPINHPRP, which “shrunken log2 fold change” value is on record?
Answer: The value was -0.683.

Question: Which “shrunken log2 fold change” value does the source give for RRIRIRPPRLPRPRPRPIPPPRP here?
Answer: The value was 0.112.

Question: With RRIRIRPPRLPRPRPRPIQGPRP as the sequence, how does the “shrunken log2 fold change” value read?
Answer: Its value is -0.0119.

Question: For RRIRIRPPRLPRPRPRPIQMPRP, which “shrunken log2 fold change” value is on record?
Answer: Its value is -0.203.

Question: How did the “shrunken log2 fold change” value turn out when RRIRIRPPRLPRPRPRPIQWPRP was run?
Answer: The value was 0.0166.

Question: For RRIRIRPPRLPRPRPRPIRDPRP, which “shrunken log2 fold change” value is on record?
Answer: Its value is -0.0759.

Question: RRIRIRPPRLPRPRPRPISSPRP was tested. Which “shrunken log2 fold change” value did it give?
Answer: Its value is -0.16.

Question: RRIRIRPPRLPRPRPRPITHPRP was tested. Which “shrunken log2 fold change” value did it give?
Answer: The value was -0.329.

Question: How did the “shrunken log2 fold change” value turn out when RRIRIRPPRLPRPRPRPITTPRP was run?
Answer: The value was -0.338.

Question: RRIRIRPPRLPRPRPRPIVAPRP was tested. Which “shrunken log2 fold change” value did it give?
Answer: The value was -0.119.

Question: With RRIRIRPPRLPRPRPRPIVQPRP as the sequence, how does the “shrunken log2 fold change” value read?
Answer: Its value is -0.158.

Question: Which “shrunken log2 fold change” value does the source give for RRIRIRPPRLPRPRPRPIWLPRP here?
Answer: The value was -0.11.

Question: Which “shrunken log2 fold change” value does the source give for RRIRIRPPRLPRPRPRPIWQPRP here?
Answer: The value was 0.182.

Question: With RRIRIRPPRLPRPRPRPIYSPRP as the sequence, how does the “shrunken log2 fold change” value read?
Answer: The value was -0.946.

Question: Which “shrunken log2 fold change” value does the source give for RRIRIRPPRLPRPRPRPKCEPRP here?
Answer: The value was 0.07.

Question: With RRIRIRPPRLPRPRPRPKCGPRP as the sequence, how does the “shrunken log2 fold change” value read?
Answer: The value was -0.0309.

Question: Which “shrunken log2 fold change” value does the source give for RRIRIRPPRLPRPRPRPKCKPRP here?
Answer: The value was -1.21.

Question: How did the “shrunken log2 fold change” value turn out when RRIRIRPPRLPRPRPRPKDLPRP was run?
Answer: Its value is 0.000215.

Question: Which “shrunken log2 fold change” value does the source give for RRIRIRPPRLPRPRPRPKEMPRP here?
Answer: Its value is -0.297.

Question: RRIRIRPPRLPRPRPRPKFLPRP was tested. Which “shrunken log2 fold change” value did it give?
Answer: The value was -0.537.

Question: RRIRIRPPRLPRPRPRPKFPPRP was tested. Which “shrunken log2 fold change” value did it give?
Answer: Its value is -0.204.

Question: Which “shrunken log2 fold change” value does the source give for RRIRIRPPRLPRPRPRPKGDPRP here?
Answer: The value was 0.424.

Question: Which “shrunken log2 fold change” value does the source give for RRIRIRPPRLPRPRPRPKGHPRP here?
Answer: Its value is 0.0764.

Question: Which “shrunken log2 fold change” value does the source give for RRIRIRPPRLPRPRPRPKHGPRP here?
Answer: The value was -0.113.

Question: How did the “shrunken log2 fold change” value turn out when RRIRIRPPRLPRPRPRPKHVPRP was run?
Answer: Its value is -0.406.

Question: With RRIRIRPPRLPRPRPRPKKGPRP as the sequence, how does the “shrunken log2 fold change” value read?
Answer: Its value is -0.252.

Question: Which “shrunken log2 fold change” value does the source give for RRIRIRPPRLPRPRPRPKKYPRP here?
Answer: Its value is -0.546.

Question: How did the “shrunken log2 fold change” value turn out when RRIRIRPPRLPRPRPRPKNTPRP was run?
Answer: Its value is -0.695.

Question: RRIRIRPPRLPRPRPRPKPGPRP was tested. Which “shrunken log2 fold change” value did it give?
Answer: The value was 0.53.

Question: RRIRIRPPRLPRPRPRPKPVPRP was tested. Which “shrunken log2 fold change” value did it give?
Answer: The value was 0.101.

Question: How did the “shrunken log2 fold change” value turn out when RRIRIRPPRLPRPRPRPKQLPRP was run?
Answer: Its value is -0.0927.

Question: RRIRIRPPRLPRPRPRPKRLPRP was tested. Which “shrunken log2 fold change” value did it give?
Answer: Its value is 0.181.

Question: RRIRIRPPRLPRPRPRPKRVPRP was tested. Which “shrunken log2 fold change” value did it give?
Answer: The value was 0.0424.

Question: With RRIRIRPPRLPRPRPRPKSDPRP as the sequence, how does the “shrunken log2 fold change” value read?
Answer: Its value is -0.222.

Question: With RRIRIRPPRLPRPRPRPKTQPRP as the sequence, how does the “shrunken log2 fold change” value read?
Answer: Its value is -0.0269.

Question: Which “shrunken log2 fold change” value does the source give for RRIRIRPPRLPRPRPRPKTVPRP here?
Answer: The value was 0.0407.

Question: For RRIRIRPPRLPRPRPRPKVCPRP, which “shrunken log2 fold change” value is on record?
Answer: Its value is -0.028.

Question: Which “shrunken log2 fold change” value does the source give for RRIRIRPPRLPRPRPRPKWSPRP here?
Answer: The value was 0.107.

Question: How did the “shrunken log2 fold change” value turn out when RRIRIRPPRLPRPRPRPKYDPRP was run?
Answer: Its value is -0.51.

Question: How did the “shrunken log2 fold change” value turn out when RRIRIRPPRLPRPRPRPKYYPRP was run?
Answer: The value was -0.632.

Question: For RRIRIRPPRLPRPRPRPLCYPRP, which “shrunken log2 fold change” value is on record?
Answer: The value was -1.07.

Question: Which “shrunken log2 fold change” value does the source give for RRIRIRPPRLPRPRPRPLESPRP here?
Answer: The value was 0.0516.

Question: With RRIRIRPPRLPRPRPRPLEVPRP as the sequence, how does the “shrunken log2 fold change” value read?
Answer: The value was -0.0958.

Question: With RRIRIRPPRLPRPRPRPLEYPRP as the sequence, how does the “shrunken log2 fold change” value read?
Answer: The value was -0.293.

Question: RRIRIRPPRLPRPRPRPLGAPRP was tested. Which “shrunken log2 fold change” value did it give?
Answer: Its value is 0.241.

Question: How did the “shrunken log2 fold change” value turn out when RRIRIRPPRLPRPRPRPLIWPRP was run?
Answer: The value was -0.236.

Question: With RRIRIRPPRLPRPRPRPLKPPRP as the sequence, how does the “shrunken log2 fold change” value read?
Answer: Its value is -0.296.

Question: For RRIRIRPPRLPRPRPRPLKSPRP, which “shrunken log2 fold change” value is on record?
Answer: The value was -0.325.

Question: For RRIRIRPPRLPRPRPRPLKVPRP, which “shrunken log2 fold change” value is on record?
Answer: Its value is -0.29.

Question: Which “shrunken log2 fold change” value does the source give for RRIRIRPPRLPRPRPRPLLEPRP here?
Answer: The value was -0.437.

Question: How did the “shrunken log2 fold change” value turn out when RRIRIRPPRLPRPRPRPLLSPRP was run?
Answer: The value was -0.483.

Question: Which “shrunken log2 fold change” value does the source give for RRIRIRPPRLPRPRPRPLMGPRP here?
Answer: Its value is -0.166.

Question: Which “shrunken log2 fold change” value does the source give for RRIRIRPPRLPRPRPRPLMIPRP here?
Answer: Its value is -0.807.

Question: Which “shrunken log2 fold change” value does the source give for RRIRIRPPRLPRPRPRPLNIPRP here?
Answer: The value was -0.925.

Question: How did the “shrunken log2 fold change” value turn out when RRIRIRPPRLPRPRPRPLPGPRP was run?
Answer: Its value is -0.0346.

Question: For RRIRIRPPRLPRPRPRPLQAPRP, which “shrunken log2 fold change” value is on record?
Answer: Its value is 0.0546.

Question: How did the “shrunken log2 fold change” value turn out when RRIRIRPPRLPRPRPRPLQLPRP was run?
Answer: The value was -0.573.

Question: For RRIRIRPPRLPRPRPRPLRQPRP, which “shrunken log2 fold change” value is on record?
Answer: Its value is 0.335.
